Test results: the supplement of paper PMC10567573
± gives the standard deviation.

Assay: protein stability index of a GFP-peptide fusion (GPS, HEK-293T) (PSI 1-6); higher = more stable
[1] = treatment: DMSO, c terminus: a fixed tail appended
[2] = treatment: MLN4924 1 uM, 8 h, c terminus: a fixed tail appended
[3] = treatment: DMSO, c terminus: native
[4] = treatment: MLN4924 1 uM, 8 h, c terminus: native
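Further: 24-mer peptide tiles fused after GFP, lentivirally expressed, FACS-sorted into six equal bins by GFP/DsRed ratio, decoded by Illumina sequencing, PSI is the read-weighted mean bin number.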

| Sequence | protein stability index [1] | protein stability index [2] | protein stability index [3] | protein stability index [4] |
| --- | --- | --- | --- | --- |
| TLGELKQNLSRSWHDVQVSSAYVK [TPD52L2] | 2.96 ± 0.23 | 3.26 ± 0.27 | – | – |
| VHRQLSHLYAEPQKSPWCEARSLE [ESR2] | 2.92 ± 0.28 | 3.2 ± 0.24 | – | – |
| PQEEIATKKLRLTKPSKSAALHID [INTS4] | 4.36 ± 0.047 | 4.46 ± 0.1 | – | – |
| MQEDRDGSCSTVGGVGYGDSKDCI [ZNF277] | 5.04 ± 0.28 | 5.1 ± 0.18 | – | – |
| SYVCRCKQGYILNSDQTTCRIQDL [MATN2] | 2.4 ± 0.31 | 2.46 ± 0.42 | – | – |
| ILENRPPGSLLCTVAASDPDTGDN [PCDHGC5] | 4.99 ± 0.12 | 5.06 ± 0.13 | – | – |
| PLVGQDEFFLEQTKKKGVKRPARL [NOP53] | 4.18 ± 0.41 | 4.2 ± 0.19 | – | – |
| ADGRIEPGDMLLQVNEINFENMSN [DVL3] | 3.95 ± 0.33 | 4.36 ± 0.32 | – | – |
| GGSSGQVTSNGSIGRDPPAETQPQ [CLPTM1] | 5.47 ± 0.24 | 5.42 ± 0.21 | – | – |
| RNGHLATVKLLVEEKADVLARGPL [RIPK4] | 3.1 ± 0.4 | 3.44 ± 0.19 | – | – |
| EHFGIVPLEAMYMQCPVIAVNSGG [ALG2] | 2.33 ± 0.11 | 2.59 ± 0.37 | – | – |
| QPSDRLMTEKQQEEAEWESINVLL [CEP70] | 4.38 ± 0.11 | 4.33 ± 0.12 | – | – |
| QPHLPLLSTLAGIRVMVHGRNHTP [SCNN1D] | 2.52 ± 0.24 | 2.62 ± 0.26 | – | – |
| DDSCQDQPGTNCALAIKVNLCGHW [ADAMTSL2] | 2.57 ± 0.1 | 2.65 ± 0.46 | – | – |
| AVFIALLPILGHRDYKIQASRTWC [PTGFR] | 2.95 ± 0.64 | 2.81 ± 1.1 | – | – |
| LERGRASLIFSLKNEVGGLIKALK [TPH1] | 3.37 ± 0.36 | 2.36 ± 0.61 | – | – |
| ACMMTITFLPYTFSLMVTFPDVPL [TMEM175] | 3.1 ± 0.09 | 3.26 ± 0.33 | – | – |
| QQLRRGRYVEFNLLYDRGTKFGLF [CPOX] | 2.52 ± 0.51 | 2.56 ± 0.36 | – | – |
| MEPPGPVRGPLQDSSWYEPSAELV [ZNF232] | 4.79 ± 0.3 | 4.67 ± 0.43 | – | – |
| APDEKRSNVRWDHESVCKYYLCGF [LUC7L3] | 2.34 ± 0.28 | 2.41 ± 0.24 | – | – |
| ELANGKPQTRSGPECGLAKKPPEE [ADAMTSL2] | – | 4.78 ± 0.42 | – | – |
| QKSPWCEARSLEHTLPVNRETLKR [ESR2] | 4.23 ± 0.16 | 4.41 ± 0.21 | – | – |

| Sequence | protein stability index [1] | protein stability index [2] | protein stability index [3] | protein stability index [4] |
| --- | --- | --- | --- | --- |
| AGELRKPTQEEWRQVVDILWSDPM [PPEF2] | 3 ± 0.53 | 2.97 ± 0.082 | – | – |
| FMVVDLLLGGDLRYHLQQNVHFKE [STK32A] | 2.8 ± 0.66 | 3.09 ± 0.78 | – | – |
| LGTAIFIEADRRRAQLHVQGLLHE [SPNS1] | 2.46 ± 0.36 | 2.17 ± 0.31 | – | – |
| VASKMKETIPLTAEKLCIYTDNSI [CCND1] | 3.15 ± 0.42 | 3.33 ± 0.084 | – | – |
| ALVVALWGPLQDSLEHTLRVAIAH [TSPAN10] | 2.89 ± 0.12 | 3.05 ± 0.15 | – | – |
| SFAILRIIRLVRVFRIFKLSRHSK [KCNA4] | 2.2 ± 0.4 | 2.44 ± 0.15 | – | – |
| PYQCSQCSKSYSRRSFLIEHQRSH [ZSCAN9] | 4.3 ± 0.2 | 4.45 ± 0.43 | – | – |
| EELTREAVAVDVAVPKRLLEIVGR [HAGHL] | 3.85 ± 0.17 | 3.91 ± 0.38 | – | – |
| IKKPESFSKQIVLRGKSIKRAPGE [NEUROD6] | 3.9 ± 0.12 | 4 ± 0.22 | – | – |
| PPTLQEAGLSHTEVLFVQDLTDE [FAF2] | – | – | 4.88 ± 0.25 | 4.92 ± 0.15 |
| KAPVQNEAPALGGGEYQEPGGNVK [BEX5] | 5.48 ± 0.21 | 5.54 ± 0.26 | – | – |
| ELRLYKQQVKKLEKALKKNVKLQE [CEP70] | 2.8 ± 0.59 | 3.08 ± 0.25 | – | – |
| VMTLPSDLRKHRRKLLSPVSREEN [PPFIA4] | 3.61 ± 0.24 | 3.9 ± 0.49 | – | – |
| VMLTLSDSKHVVLPVDDDSDLNVV [RBBP5] | 3.51 ± 0.14 | 3.49 ± 0.25 | – | – |
| GKTYCKRDYVRLFGIKCAKCQVGF [ISL2] | 2.03 ± 0.19 | 2.17 ± 0.23 | – | – |
| SRELSLRPSRSGAQQLEEEGPMEE [EID1] | 5.58 ± 0.29 | 5.64 ± 0.12 | – | – |
| DDLVPKGKKFLLLSINRYERKKNL [ALG2] | 2.58 ± 0.092 | 2.67 ± 0.29 | – | – |
| AARAGHVCTVQFLISKGANVNRTT [ANKRD17] | 1.83 ± 0.32 | 2.07 ± 0.21 | – | – |
| KCIFTQFRIILGDFDYNAIDNANR [PKD2L1] | 2.41 ± 0.32 | 2.52 ± 0.36 | – | – |
| KQNKQVLGYCLLLMLAGMGLHYIA [DNAJC4] | 2.23 ± 0.31 | 2.46 ± 0.37 | – | – |
| QASCDEAHKMKFSDLFSLAEEYED [INTS3] | 4.61 ± 0.23 | 4.77 ± 0.27 | – | – |
| MKLFLDCLKEFPEKQELHRNMLGL [ZER1] | 2.35 ± 0.11 | 2.4 ± 0.35 | – | – |

| Sequence | protein stability index [1] | protein stability index [2] | protein stability index [3] | protein stability index [4] |
| --- | --- | --- | --- | --- |
| LNDIFHLLKSHTNVLSVNLPDNFT [TPH1] | 2.35 ± 0.32 | 2.05 ± 0.41 | – | – |
| QEELNRKAEELDRRERELQHAALG [SCAMP3] | 5.39 ± 0.21 | 5.24 ± 0.55 | – | – |
| FKLTNKNSDRMTHCGVLEFVADEG [UFD1] | 3.32 ± 0.18 | 3.27 ± 0.31 | – | – |
| RGAPPPPPSRAPTAAPPPPPPSRP [WASL] | 5.11 ± 0.19 | 5.17 ± 0.2 | – | – |
| TNTTSTQMTNIGVYVSNMTDKLVT [IQUB] | 2.78 ± 0.3 | 2.8 ± 0.34 | – | – |
| MHLARCRWASAPPLYTLIDVLKYS [ZSWIM9] | 2.94 ± 0.22 | 2.43 ± 0.35 | – | – |
| KFPGQSSFLWQRGRKFLQKHLNAS [TOR1AIP2] | 2.47 ± 0.14 | 2.51 ± 0.22 | – | – |
| RVKREFEPASAREAPASVVPFVRV [USP39] | 3.33 ± 0.57 | 3.5 ± 0.24 | – | – |
| ADLWYLFGDLSLSLVTVGKHLTAR [POMT2] | 3.17 ± 0.74 | 2.56 ± 0.8 | – | – |
| LAALSATISFRIYKSVLQAVQKTD [RTN1] | 2.53 ± 0.76 | 2.28 ± 0.54 | – | – |
| KFRAKGRKPCKLMLQVVKILVVTV [MCOLN1] | 2.51 ± 0.39 | 2.16 ± 0.19 | – | – |
| FRLETLAGLRSRRLKQPKAFCLRD [MIR22HG] | 2.52 ± 0.28 | 2.46 ± 0.29 | – | – |
| NVYHSYDLPWFRTLSWYFLLCVNY [CDS2] | 2.93 ± 0.23 | 2.98 ± 0.28 | – | – |
| VKEKFSPEAFTEQLYRYVTKLLV [ALG2] | – | – | 3.38 ± 0.3 | 3.16 ± 0.16 |
| SAGIAKLEEGDELQLAIPRENAQI [TNFSF13B] | 5.08 ± 0.25 | 4.97 ± 0.23 | – | – |
| EGCGPPLRRWLRANLAASGGYAIA [TSPAN10] | 1.94 ± 0.21 | 2.52 ± 0.3 | – | – |
| SLGVDTLPPPDPNPPRAEFNYSVG [APBB1IP] | 4.1 ± 0.31 | 4.44 ± 0.22 | – | – |
| RLLQAQLQAQKEELQSLMHQPKGL [PBXIP1] | 2.91 ± 0.14 | 2.9 ± 0.26 | – | – |
| QEVVELPVTERQIEREHLIQLRRW [TBC1D10A] | 4.05 ± 0.25 | 4.22 ± 0.2 | – | – |
| SAIVLGDLKLRKFVFSTEERTQLR [TRIB1] | 2.77 ± 0.48 | 2.92 ± 0.29 | – | – |
| GGGDISVKELGTVMRMLGQTPTKE [TNNC2] | 4.04 ± 0.05 | 3.64 ± 0.83 | – | – |
